For the assay, the target named is T1, mouse PD-L1 on mouse splenocytes (mouse, UniProt Q9EP73 19-290).
T1 construct: whole, on cells
In words: flow cytometry receptor occupancy on BALB/c and C57Bl/6 splenocytes, free PD-L1 by competing Ab clone. As for the experimental part: FIGS. 1A and 1B: Mouse splenocytes were evaluated for mCD80-Fc engagement and receptor occupancy. (A) Splenic immune cell subsets were identified as CD11b+ DCs (B220-Thy1.2−CD49b−CD11c+CD11b+), CD11b− DCs (B220− Thy1.2−CD49b-CD11c+CD11b−), Macrophages (B220−Thy1.2−CD49b−CD11c−CD11b+), NK cells (B220− Thy1.2−CD49b+), and T cells (CD3+CD4+ or CD3+CD8+) by flow cytometry. Representative flow cytometry plots depict the gating strategy. (B) Increasing concentrations of mCD80-Fc were incubated with mouse splenocytes (BALB/c strain top row; C57Bl/6 strain bottom row), and mCD80-Fc engagement was measured both via biotin-labeled anti-mIgG followed by streptavidin Alexa488 (“bound drug”) and by detection of CD80 ligands with competing Ab clones (“free” PD-L1 or CD28) enumerated as Antibody Binding Capacity (ABC) values. CTLA-4 was not detected on any immune cell evaluated (data not shown). L.D., limit of detection of ABC. Graphs depict mean±SD of n=3 animals/strain measured in technical duplicates. […]
Mouse splenocytes were prepared from adult BALB/c and […] mice by methods known to those of ordinary skill in the art. […] Data from the samples was acquired on a BD LSRII or BD LSRFortessa and analyzed using FlowJo, Excel, and Graphpad Prism.
Background: In flow cytometry, cells or beads pass a laser one at a time.

T1 sequence (Q9EP73 19-290): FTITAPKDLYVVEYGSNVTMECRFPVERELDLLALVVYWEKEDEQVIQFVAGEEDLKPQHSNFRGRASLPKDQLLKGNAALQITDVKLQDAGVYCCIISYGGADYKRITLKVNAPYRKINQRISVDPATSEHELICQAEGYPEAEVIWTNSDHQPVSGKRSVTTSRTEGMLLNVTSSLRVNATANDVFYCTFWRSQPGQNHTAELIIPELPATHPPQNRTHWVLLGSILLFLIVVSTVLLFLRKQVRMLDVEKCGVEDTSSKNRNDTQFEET

B1: mouse surrogate fusion protein comprising the extracellular domain (ECD) of murine CD80 linked to the Fc domain of mouse IgG2a wild type (mCD80-Fc) (Fc fusion)
chain: VDEQLSKSVKDKVLLPCRYNSPHEDESEDRIYWQKHDKVVLSVIAGKLKVWPEYKNRTLYDNTTYSLIILGLVLSDRGTYSCVVQKKERGTYEVKHLALVKLSIKADFSTPNITESGNPSADTKRITCFASGGFPKPRFSWLENGRELPGINTTISQDPESELYTISSQLDFNTTRNHTIKCLIKYGDAHVSEDFTWEKPPEDPPDSKNEPRGPTIKPCPPCKCPAPNLLGGPSVFIFPPKIKDVLMISLSPIVTCVVVDVSEDDPDVQISWFVNNVEVHTAQTQTHREDYNSTLRVVSALPIQHQDWMSGKEFKCKVNNKDLPAPIERTISKPKGSVRAPQVYVLPPPEEEMTKKQVTLTCMVTDFMPEDIYVEWTNNGKTELNYKNTEPVLDSDGSYFMYSKLRVEKKNWVERNSYSCSVVHEGLHNHHTTKSFSRTPGK
notes: also called Murine CD80 ECD Fusion Molecules; Mouse CD80 ECD mouse Fc IgG2a
Consider B1, for which the binding result was “no binding (tested: 0-1000 µg/mL)”.

The record behind these values is patent US20220031806A1 (Five Prime, published 2022).
